Experimental data taken from CN116143933A (BEIJING ZHIREN MEIBO BIOTECHNOLOGY CO LTD, dated 2023).

B1: S5A10h1Fab+S5B8h2ScFv (bispecific antibody, human IgG1, kappa)
chain: DIVMTQTPLSLPVTPGEPASISCRSSQSLVHSNGNTYLHWYLQKPGQSPQLLIYKVSNRFSGVPDRFSGSGSGTDFTLKISRVEAEDVGVYYCSQSTHVPLTFGQGTKLEIKGGGGSGGGGSGGGGSQVQLVQSGAEVKKPGASVKVSCKASGYAFTNSWMHWVRQAPGQGLEWMGEIHPQSGRTNYNEKFKGRVTMTRDTSTSTVYMELSSLRSEDTAVYYCARDLLQFGNQYYYAMDYWGQGTLVTVSSEPKSSDKTHTCPPCPAPELLGGPSVFLFPPKPKDTLMISRTPEVTCVVVDVSQEDPEVQFNWYVDGVEVHNAKTKPREEQYNSTYRVVSVLTVLHQDWLNGKEYKCKVSNKALPAPIEKTISKAKGQPREPQVCTLPPSQEEMTKNQVSLSCAVKGFYPSDIAVEWESNGQPENNYKTTPPVLDSDGSFFLVSKLTVDKSRWQEGNVFSCSVMHEALHNHYTQKSLSLSPGK
heavy: not shown
light: DIQMTQSPSSLSASVGDRVTITCRASENIYSYLAWYQQKPGKAPKLLIYNAKTLAEGVPSRFSGSGSGTDFTLTISSLQPEDFATYYCQHHYGTPYTFGQGTKLEIKRTVAAPSVFIFPPSDEQLKSGTASVVCLLNNFYPREAKVQWKVDNALQSGNSQESVTEQDSKDSTYSLSSTLTLSKADYEKHKVYACEVTHQGLSSPVTKSFNRGEC
notes: Fab-FcK/scFv-FcH knob-into-hole format, three chains
B2: S5B8h2 (antibody, IgG1, V domains shown)
VH: QVQLVQSGAEVKKPGASVKVSCKASGYAFTNSWMHWVRQAPGQGLEWMGEIHPQSGRTNYNEKFKGRVTMTRDTSTSTVYMELSSLRSEDTAVYYCARDLLQFGNQYYYAMDYWGQGTLVTVSS
VL: DIVMTQTPLSLPVTPGEPASISCRSSQSLVHSNGNTYLHWYLQKPGQSPQLLIYKVSNRFSGVPDRFSGSGSGTDFTLKISRVEAEDVGVYYCSQSTHVPLTFGQGTKLEIK
notes: Made as a whole antibody of the IgG1 subtype; only variable domains are tied to it; also called 单克隆抗体S5B8h2
B3: S5A10h1cross+S5B8h2 (bispecific antibody, human IgG1, kappa)
heavy 1: QVQLVQSGAEVKKPGASVKVSCKASGYAFTNSWMHWVRQAPGQGLEWMGEIHPQSGRTNYNEKFKGRVTMTRDTSTSTVYMELSSLRSEDTAVYYCARDLLQFGNQYYYAMDYWGQGTLVTVSSASTKGPSVFPLAPSSKSTSEGTAALGCLVKDYFPEPVTVSWNSGALTSGVHTFPAVLQSSGLYSLSSVVTVPSSSLGTQTYICNVDHKPSNTKVDKTVEPKSCDKTHTCPPCPAPELLGGPSVFLFPPKPKDTLMISRTPEVTCVVVDVSQEDPEVQFNWYVDGVEVHNAKTKPREEQYNSTYRVVSVLTVLHQDWLNGKEYKCKVSNKALPAPIEKTISKAKGQPREPQVCTLPPSQEEMTKNQVSLSCAVKGFYPSDIAVEWESNGQPENNYKTTPPVLDSDGSFFLVSKLTVDKSRWQEGNVFSCSVMHEALHNHYTQKSLSLSPGK
light 1: DIVMTQTPLSLPVTPGEPASISCRSSQSLVHSNGNTYLHWYLQKPGQSPQLLIYKVSNRFSGVPDRFSGSGSGTDFTLKISRVEAEDVGVYYCSQSTHVPLTFGQGTKLEIKRTVAAPSVFIFPPSDEQLKSGTASVVCLLNNFYPREAKVQWKVDNALQSGNSQESVTEQDSKDSTYSLSSTLTLSKADYEKHKVYACEVTHQGLSSPVTKSFNRGEC
heavy 2: not shown
light 2: DIQMTQSPSSLSASVGDRVTITCRASENIYSYLAWYQQKPGKAPKLLIYNAKTLAEGVPSRFSGSGSGTDFTLTISSLQPEDFATYYCQHHYGTPYTFGQGTKLEIKSSASTKGPSVFPLAPSSKSTSGGTAALGCLVKDYFPEPVTVSWNSGALTSGVHTFPAVLQSSGLYSLSSVVTVPSSSLGTQTYICNVNHKPSNTKVDKRVEPKSC
notes: Knob-into-hole plus CrossMab format, four chains
B4: S5A10h1 (antibody, V domains shown)
VH: QVQLVQSGAEVKKPGSSVKVSCKASDYPFISYTIHWVRQAPGQGLEWMGYINPSNGYTNYNQKFKDRVTITADKSTSTAYMELSSLRSEDTAVYYCARKYGNFYAMDYWGQGTLVTVSS
VL: DIQMTQSPSSLSASVGDRVTITCRASENIYSYLAWYQQKPGKAPKLLIYNAKTLAEGVPSRFSGSGSGTDFTLTISSLQPEDFATYYCQHHYGTPYTFGQGTKLEIK
notes: Made as a whole antibody of the IgG1 subtype; only variable domains are tied to it; also called 单克隆抗体S5A10h1

target: T1, 食蟹猴CD38胞外区-His (mfCD38-His) (cynomolgus monkey (Macaca fascicularis), UniProt Q5VAN0 44-301); experiment: ELISA, mfCD38-His coated at 1.5 μg/ml, HRP mouse anti-human IgG
T1 construct: Recombinant, expressed in HEK293 cells; not shown: His tag at the C-terminus

binding result | Binder
binds | B1
binds | B2
binds | B3

target: T2, 人CD38胞外区-His (hCD38-His) (human (homo sapiens), UniProt P28907 43-300); experiment: SPR (Biacore X100), antibody captured by anti-human Fc, human CD38-His as analyte, 25°C
T2 construct: Recombinant, expressed in HEK293 cells; also called 人CD38-His; not shown: His tag at the C-terminus

Kd | Binder
0.151 nM | B1
0.0213 nM | B2
0.0216 nM | B3
1.33 nM | B4
